In publication PMC3616104, “Structural and Phylogenetic Studies with MjTX-I Reveal a Multi-Oligomeric Toxin – a Novel Feature in Lys49-PLA2s Protein Class” (PLoS ONE, 2013):

Assays:
[1] = target: the molecule itself; experiment: dynamic light scattering; MjTX-I 1.5 mg/ml, 18 °C, 20 mM Tris-HCl pH 8.0
[2] = target: the molecule itself; experiment: dynamic light scattering; MjTX-I 1.5 mg/ml, 18 °C, 0.5, 2.0 and 10.0 mM Tris-HCl pH 8.0, two hours after addition of the buffer

B1: MjTX-I (myotoxin-I) from Bothrops moojeni venom (natural protein)
chain: SLVELGKMILQETGKNPVTSYGAYGCNCGVLGRGKPKDATDRCCYVHKCCYKKLTDCNPKKDRYSYSWKDKTIVCGENNSCLKELCECDKAVAICLRENLDTYNKKYKNNYLKPFCKKADPC
notes: Myotoxin-I (MjTX-I), Lys49-phospholipase A2 homologue from Bothrops moojeni venom, NCBI GI 17368325; about 14 kDa per monomer; also called Lys49-PLA2
With B1 the “stoichiometry N” value [1] was 4 and the “stoichiometry N” value [2] was 2.
